The values below come from ChEMBL document CHEMBL2177050, “Understanding the binding of daunorubicin and doxorubicin to NADPH-dependent cytosolic reductases by computational methods” (Eur J Med Chem, 2012).

Series [1] has as its target T1, Aldo-keto reductase family 1 member A1 (Homo sapiens) (UniProt P14550).
T1 sequence (whole entry): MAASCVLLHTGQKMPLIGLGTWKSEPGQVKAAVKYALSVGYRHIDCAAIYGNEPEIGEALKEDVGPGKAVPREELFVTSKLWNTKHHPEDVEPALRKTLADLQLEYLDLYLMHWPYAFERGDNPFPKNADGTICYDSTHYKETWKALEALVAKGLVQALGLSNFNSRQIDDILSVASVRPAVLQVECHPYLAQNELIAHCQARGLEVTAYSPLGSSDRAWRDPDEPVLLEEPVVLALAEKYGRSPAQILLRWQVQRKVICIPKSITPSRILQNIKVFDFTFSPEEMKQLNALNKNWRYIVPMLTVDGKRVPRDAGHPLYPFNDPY
Briefly: Activity of human AKR1A1 expressed in Escherichia coli BL21 assessed per mg protein in presence of 0.2 mM NADPH.

Substrate in series [2]: COc1cccc2c1C(=O)c1c(O)c3c(c(O)c1C2=O)C[C@@](O)(C(=O)CO)C[C@@H]3O[C@H]1C[C@H](N)[C@H](O)[C@H](C)O1
Briefly: Activity of GST-tagged aldo-keto reductase 1A1.

Substrate in series [3]: COc1cccc2c1C(=O)c1c(O)c3c(c(O)c1C2=O)C[C@@](O)(C(=O)CO)C[C@@H]3O[C@H]1C[C@H](N)[C@H](O)[C@H](C)O1
Briefly: (§1) Activity of human recombinant His6-tagged carbonyl reductase 1 expressed in Escherichia coli BL21(DE3) using menadione as substrate by Michaelis-Menten plot analysis.

Substrate in series [4]: COc1cccc2c1C(=O)c1c(O)c3c(c(O)c1C2=O)C[C@@](O)(C(C)=O)C[C@@H]3O[C@H]1C[C@H](N)[C@H](O)[C@H](C)O1
Described as §1.

Substrate in series [5]: COc1cccc2c1C(=O)c1c(O)c3c(c(O)c1C2=O)C[C@@](O)(C(=O)CO)C[C@@H]3O[C@H]1C[C@H](N)[C@H](O)[C@H](C)O1
As to the kind of experiment: Activity of His-tagged carbonyl reductase 1.

Substrate in series [6]: COc1cccc2c1C(=O)c1c(O)c3c(c(O)c1C2=O)C[C@@](O)(C(=O)CO)C[C@@H]3O[C@H]1C[C@H](N)[C@H](O)[C@H](C)O1
Briefly: (§2) Activity of human carbonyl reductase 1.

Substrate in series [7]: COc1cccc2c1C(=O)c1c(O)c3c(c(O)c1C2=O)C[C@@](O)(C(C)=O)C[C@@H]3O[C@H]1C[C@H](N)[C@H](O)[C@H](C)O1
The series is described as §2.

As for `COc1cccc2c1C(=O)c1c(O)c3c(c(O)c1C2=O)C[C@@](O)(C(=O)CO)C[C@@H]3O[C@H]1C[C@H](N)[C@H](O)[C@H](C)O1`, the Activity in series [1] stood at 11 nmol/min.
Take `COc1cccc2c1C(=O)c1c(O)c3c(c(O)c1C2=O)C[C@@](O)(C(C)=O)C[C@@H]3O[C@H]1C[C@H](N)[C@H](O)[C@H](C)O1`: the Activity in series [1] came out at 120 nmol/min.

B1: Aldo-keto reductase family 1 member A1 (Homo sapiens), P14550 (protein)
chain: T1 sequence (whole entry)
B1: in series [2], the Km (usually the concentration of substrate that gives half-maximal velocity) worked out at 247 µM and the kcat – broadly, the maximal rate divided by the concentration of active sites – came to 0.000667 s⁻¹.

B2: Carbonyl reductase [NADPH] 1 (Homo sapiens), P16152 (protein)
chain: MSSGIHVALVTGGNKGIGLAIVRDLCRLFSGDVVLTARDVTRGQAAVQQLQAEGLSPRFHQLDIDDLQSIRALRDFLRKEYGGLDVLVNNAGIAFKVADPTPFHIQAEVTMKTNFFGTRDVCTELLPLIKPQGRVVNVSSIMSVRALKSCSPELQQKFRSETITEEELVGLMNKFVEDTKKGVHQKEGWPSSAYGVTKIGVTVLSRIHARKLSEQRKGDKILLNACCPGWVRTDMAGPKATKSPEEGAETPVYLALLPPDAEGPHGQFVSEKRVEQW
As to B2, the Km in series [3] came out at 287 µM; in series [4], 51 µM; in series [5], 167 µM; in series [6] it was 90 µM; in series [7] it was 108 µM. Also, the kcat in series [3] was determined as 0.21 s⁻¹; in series [4], 1.94 s⁻¹; in series [5] it was 0.0103 s⁻¹; in series [7], 1.27 s⁻¹.
